The sequences below were run on Escherichia coli TOP10 (assay: shrunken log2 fold change of peptide-encoding DNA abundance (4.5 h post-induction vs induction); higher = less antimicrobial activity (less host growth inhibition)). Conditions: time post-induction: 4.5 h; library: site-saturation at positions 5, 18, 19, 20.
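Note: peptides expressed intracellularly from a pBAD plasmid library in pooled LB shake-flask culture, induced with 0.3% L-arabinose, DNA abundance read by NGS, three biological replicates, DESeq2 with apeglm shrinkage.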

RRIRWRPPRLPRPRPRPHGQPRP and RRIRDRPPRLPRPRPRPYLTPRP are within 0.2 log units of each other in “shrunken log2 fold change” value: -0.0861 for the first, -0.0558 for the second.

Going from RRIRSRPPRLPRPRPRPEIWPRP to RRIRNRPPRLPRPRPRPHNTPRP, the “shrunken log2 fold change” value falls from 0.456 to -0.643.

First: RRIRIRPPRLPRPRPRPWCCPRP
Second: RRIRVRPPRLPRPRPRPEWVPRP
The “shrunken log2 fold change” value of the first is lower: -0.481 for the first, 0.23 for the second.

RRIRPRPPRLPRPRPRPLNKPRP and RRIRLRPPRLPRPRPRPDVKPRP are within 0.2 log units of each other in “shrunken log2 fold change” value: -0.55 for the first, -0.488 for the second.

RRIRIRPPRLPRPRPRPEDCPRP and RRIRQRPPRLPRPRPRPVNPPRP are within 0.2 log units of each other in “shrunken log2 fold change” value: 0.00952 for the first, -0.085 for the second.

Compared with RRIRNRPPRLPRPRPRPCGAPRP, RRIRIRPPRLPRPRPRPIDAPRP is lower in “shrunken log2 fold change” value: 0.144 for the first, -0.215 for the second.

First: RRIRCRPPRLPRPRPRPHVSPRP
Second: RRIRKRPPRLPRPRPRPSGGPRP
The “shrunken log2 fold change” value of the first is lower: -0.37 for the first, 0.255 for the second.

First: RRIRPRPPRLPRPRPRPEQHPRP
Second: RRIRERPPRLPRPRPRPCYHPRP
The “shrunken log2 fold change” value of the first is higher: 0.214 for the first, -0.744 for the second.

RRIRHRPPRLPRPRPRPFWEPRP and RRIRHRPPRLPRPRPRPCMDPRP are within 0.2 log units of each other in “shrunken log2 fold change” value: -0.218 for the first, -0.0981 for the second.

Compared with RRIRYRPPRLPRPRPRPLWNPRP, RRIRTRPPRLPRPRPRPARRPRP is higher in “shrunken log2 fold change” value: -0.471 for the first, 0.204 for the second.

RRIRRRPPRLPRPRPRPFEWPRP and RRIRSRPPRLPRPRPRPEEFPRP are within 0.2 log units of each other in “shrunken log2 fold change” value: -0.0864 for the first, -0.00122 for the second.

RRIRHRPPRLPRPRPRPTTWPRP and RRIRYRPPRLPRPRPRPWACPRP are within 0.2 log units of each other in “shrunken log2 fold change” value: -0.182 for the first, -0.263 for the second.

Going from RRIRQRPPRLPRPRPRPHSGPRP to RRIRWRPPRLPRPRPRPDCWPRP, the “shrunken log2 fold change” value rises from -0.01 to 0.967.

Compared with RRIRLRPPRLPRPRPRPQNNPRP, RRIRPRPPRLPRPRPRPKEDPRP is higher in “shrunken log2 fold change” value: -0.585 for the first, 0.176 for the second.

Going from RRIRQRPPRLPRPRPRPLRTPRP to RRIRQRPPRLPRPRPRPPCMPRP, the “shrunken log2 fold change” value falls from 0.691 to -0.0968.

First: RRIRTRPPRLPRPRPRPAPNPRP
Second: RRIRCRPPRLPRPRPRPFCNPRP
The “shrunken log2 fold change” value of the first is higher: 0.0436 for the first, -0.428 for the second.

RRIRQRPPRLPRPRPRPKDPPRP and RRIRIRPPRLPRPRPRPPVFPRP are within 0.2 log units of each other in “shrunken log2 fold change” value: -0.000135 for the first, 0.0815 for the second.

RRIRHRPPRLPRPRPRPIELPRP and RRIRHRPPRLPRPRPRPWKVPRP are within 0.2 log units of each other in “shrunken log2 fold change” value: -0.0301 for the first, -0.0338 for the second.

Going from RRIRDRPPRLPRPRPRPPYFPRP to RRIRARPPRLPRPRPRPICLPRP, the “shrunken log2 fold change” value rises from -0.0365 to 0.425.

Going from RRIRSRPPRLPRPRPRPFGPPRP to RRIRVRPPRLPRPRPRPSNDPRP, the “shrunken log2 fold change” value falls from 0.132 to -0.244.

Going from RRIRLRPPRLPRPRPRPSRPPRP to RRIRERPPRLPRPRPRPMTPPRP, the “shrunken log2 fold change” value falls from 0.233 to -0.0365.

RRIRMRPPRLPRPRPRPIWCPRP and RRIRHRPPRLPRPRPRPCVMPRP are within 0.2 log units of each other in “shrunken log2 fold change” value: -0.234 for the first, -0.239 for the second.

Going from RRIRSRPPRLPRPRPRPFKGPRP to RRIRIRPPRLPRPRPRPTIIPRP, the “shrunken log2 fold change” value falls from 0.112 to -0.848.

First: RRIRERPPRLPRPRPRPSKSPRP
Second: RRIRHRPPRLPRPRPRPKACPRP
The “shrunken log2 fold change” value of the first is lower: -0.688 for the first, -0.01 for the second.

RRIRPRPPRLPRPRPRPQDEPRP and RRIRERPPRLPRPRPRPVQFPRP are within 0.2 log units of each other in “shrunken log2 fold change” value: 0.0996 for the first, -0.0474 for the second.

First: RRIRGRPPRLPRPRPRPNQLPRP
Second: RRIRERPPRLPRPRPRPLMRPRP
The “shrunken log2 fold change” value of the first is lower: 0.0782 for the first, 0.839 for the second.

Going from RRIRQRPPRLPRPRPRPVLAPRP to RRIRHRPPRLPRPRPRPPKNPRP, the “shrunken log2 fold change” value falls from 0.232 to -0.0129.

RRIRKRPPRLPRPRPRPPIYPRP and RRIRQRPPRLPRPRPRPEMLPRP are within 0.2 log units of each other in “shrunken log2 fold change” value: 0.0758 for the first, 0.0554 for the second.

Going from RRIRFRPPRLPRPRPRPRLLPRP to RRIRTRPPRLPRPRPRPNPYPRP, the “shrunken log2 fold change” value falls from 0.342 to -0.121.

First: RRIRKRPPRLPRPRPRPYLWPRP
Second: RRIRARPPRLPRPRPRPITVPRP
The “shrunken log2 fold change” value of the first is higher: 0.125 for the first, -0.201 for the second.
